{"source": "patent US9862748B2", "about": "“Peptide compounds and methods of production and use thereof” (priority 2012, dated 2018)", "molecules": {"B1": {"name": "HB-EGF: heparin binding-epidermal growth factor, used as the positive control (protein, UniProt Q99075 63-148, looked up)", "Heparin-binding EGF-like …": "DLQEADLDLLRVTLSSKPQALATPNKEEHGKRKKKGKGLGKKRDPCLRKYKDFCIHGECKYVKELRAPSCICHPGYHGERCHGLSL"}, "B2": {"name": "CAP37: cationic antimicrobial protein of Mr 37 kDa; recombinant CAP37 produced in human embryonic kidney (HEK) 293 cells (protein)", "chain": "IVGGRKARPRQFPFLASIQNQGRHFCGGALIHARFVMTAASCFQSQNPGVSTVVLGAYDLRRRERQSRQTFSISSMSENGYDPQQNLNDLMLLQLDREANLTSSVTILPLPLQNATVEAGTRCQVAGWGSQRSGGRLSRFPRFVNVTVTPEDQCRPNNVCTGVLTRRGGICNGDGGTPLVCEGLAHGVASFSLGPCGRGPDFFTRVALFRDWIDGVLNNPGP"}}, "key": {"[1]": {"system": "human corneal epithelial cell (HCEC)", "assay": "HCEC chemotaxis, modified Boyden chemotaxis chamber assay", "assay_type": "cell-based", "settings": "for HCEC migration versus buffer control: 120-146QH 10^−4 to 10^−10 M, 120-146QR 10^−6 and 10^−8 M, HB-EGF 50 ng/ml, rCAP37 250 ng/ml, 3 hours", "experimental": "The effect of buffer control (0.1% BSA in Gey's buffer), heparin binding-epidermal growth factor (HB-EGF, 50 ng/ml), recombinant CAP37 (rCAP37, 250 ng/ml), 120-146QH ([…], 10^−10M, 10^−8M, 10^−4M, and 10^−4M,) and 120-146QR (10^−10M, 10^−8M, 10^−6M, and 10^−4M) on HCEC chemotaxis was determined by the modified Boyden chemotaxis chamber method. HCEC chemotaxis was measured in response to HB-EGF, rCAP37, and peptides 120-146QH (SEQ ID NO: 29) and 120-146QR (SEQ ID NO: 28) after incubation for 3 hours at 37° C. Chemotaxis is expressed as a percent migration. The buffer control (no chemoattractant) is arbitrarily assigned the value of 100% migration. Data are expressed as means±SEM and are calculated from 6 observations for each test point. **P<0.01 by Wilcoxon signed-rank test as compared to controls.\nChemotaxis assays were performed using the modified Boyden chemotaxis chamber assay. Peptide 120-146QH was used at 10^−4M, 10^−6M, 10^−8 M, 10^−10 M, and 10^−12M, and peptide 120-146QR was used at 10^−4M, 10^−6M, 10^−8 M, and 10^−10 M."}, "[2]": {"parameters": "species or system male Sprague Dawley rats", "settings": "rat, in vivo, iv", "experimental": "The purpose of this example was to assess the pharmacokinetics, distribution, and excretion of ^14C-BCC03-5RMP (SEQ ID NO: 23) following a single intravenous administration to male rats. Pharmacokinetic, excretion, and distribution profiles of ^14C-BCC03-5RMP-derived radioactivity were examined in male Sprague Dawley rats following a single intravenous administration of ^14C-BCC03-5RMP (20 mg/kg; 125 μCi/kg). ^14C-BCC03-5RMP was formulated in 5% (v:v) dextrose in water, pH 5.5 and was administered at a dose volume of 5 mL/kg. For assessment of pharmacokinetics of total radioactivity (Group 1), blood was collected at 0.25, 0.5, 1, 2, 4, 8, 24, 48, and 72 hours postdose. For assessment of excretion profiles, urine was collected from 0-8 and 8-24 hours postdose, and at 24-hour intervals through 168 hours postdose. Feces was collected at 24-hour intervals through 168 hours postdose. For assessment of distribution profiles, one animal/time point was sacrificed at 0.25, 1, 4, 24, and 72 hours postdose, and the carcasses were prepared for quantitative whole-body autoradiography (QWBA). Concentrations of radioactivity in whole blood, plasma, urine, feces (after oxidation), cage rinse, cage wash, and carcass were determined by liquid scintillation counting (LSC). Tissue concentrations were calculated by interpolation from each standard curve using MCID™ analysis software (InterFocus Imaging Ltd Corp., UK). Pharmacokinetic parameters for total radioactivity in blood and plasma were calculated using WinNonlin Professional Edition (version 5.2, Pharsight Corporation, St. Louis, Mo.)."}, "[3]": {"system": "mouse cornea (corneal epithelial abrasion)", "assay": "In vivo model of corneal wound healing", "experimental": "The in vivo model of wound healing was carried out using a disposable biopsy punch (2 mm, Miltex, York, Pa.) to demarcate the mouse cornea and a 0.5 mm burr using the AlgerBrush II (The Alger Company, Inc., Lago Vista, Tex.) to remove the corneal epithelium.\nMice were anesthetized using ketamine (100 mg/kg; Bionichepharma, LLC., St. Lake Forrest, Ill.) and xylazine ([…]; Rompun; Bayer Corp., Shawnee Mission, Kans.), and the right cornea was wounded as follows. A disposable biopsy punch (2 mm, Miltex, York, Pa.) was used to demarcate the mouse cornea. The corneal epithelium was carefully removed within the 2 mm demarcated area with a 0.5 mm burr using the AlgerBrush II (The Alger Company, Inc., Lago Vista, Tex.). The corneal abrasions were treated at 0 and 16 hours with HB-EGF (250 ng/ml), rCAP37 (250 ng/ml), or vehicle control (0.9% sodium chloride, pH 5.5, Baxter, Deerfield, Ill.). Corneal abrasions were visualized using sterile fluorescein sodium ophthalmic strips USP (FLUORETS®, Chauvin Laboratory, Aubenas, France) dampened with sterile PBS. Images were taken at 0, 16, 24, and 48 hours immediately following fluorescein staining using a surgical microscope equipped with a camera (Carl Zeiss OPMI VISU 140, Carl Zeiss Surgical, Inc., Oberkochen, Germany). The areas of the open wound were quantitated using ImageJ software (US National Institutes of Health), and the results were reported as the percentage of wound closure.\nWhole mouse eyes were collected for histology at 0, 6, 16, 24, and 48 hours post wounding and were immediately placed in Prefer fixative (Anatech LTD., Battle Creek, Mich.) for 20 minutes before being transferred to 70% ethanol. Tissues were paraffin-embedded and cut at a thickness of 5 μm, mounted on SUPERFROSTPLUS® slides (Statlab Medical Products, Lewisville, Tex.), and subsequently deparaffinized, rehydrated, and washed in deionized water. Sections were stained with hematoxylin (Leica Microsystems, Buffalo Grove, Ill.) and rinsed twice in deionized water before being washed in Blue Buffer (Leica Microsystems). The sections were finally washed in deionized water and 95% ethanol prior to being counterstained with eosin (Leica Microsystems). Sections were dehydrated in ethanol and cleared in xylene."}, "HCEC monolayers": {"system": "HCEC monolayers", "assay": "In vitro scratch assay of wound closure", "assay_type": "cell-based, human", "experimental": "An in vitro scratch assay was used in order to determine the ability of rCAP37 to facilitate corneal wound healing. Human corneal epithelial cells were cultured as described above until they reached a confluent monolayer. Each monolayer was scratched using a 10 μl pipette tip to create two perpendicular lines. Monolayers were treated with heparin binding-epidermal growth factor (HB-EGF, 250 ng/ml; Becton Dickinson), rCAP37 (25-2000 ng/ml), or basal KSFM (Gibco). Wound closure was monitored at 0, 18, 24, and 48 hours utilizing a camera-equipped inverted microscope (TE2000-E; Nikon, Melville, N.Y.). Time-lapse images of in vitro wound closure were obtained using a camera-equipped inverted microscope (TE2000-E; Nikon) from 0-18 hours. HCEC monolayers were treated with HB-EGF, rCAP37, and basal KSFM as described above. The width of each scratch was quantitated using ImageJ software (US National Institutes of Health, Bethesda, Md.). Results are presented as the percentage of wound closure."}, "[4]": {"settings": "250 ng/ml topical at 0 and 16 hours"}}, "note": "Square brackets hold non-standard residues; d marks the D form. Ends that are not written are not given here. Peptide text beside a SMILES is read from it. AEEA = NCCOCCOCC(=O)O"}
{"molecule": "GTRCQVAGWGSQRSGGRLSRFPRFVNV [Peptide 120-146QR]", "values": [{"measurement": "HCEC migration versus buffer control", "setting": "[1]", "result": "significantly increase migration"}]}
{"molecule": "CC[C@H](C)[C@H](NC(=O)[C@H](CC(C)C)NC(=O)[C@H](C)NC(=O)CNC(=O)CNC(=O)[C@H](CS)NC(=O)[C@H](Cc1ccccc1)NC(=O)[C@H](Cc1c[nH]cn1)NC(=O)[C@H](CCCNC(=N)N)NC(=O)CNC(=O)[C@H](CCC(N)=O)NC(=O)[C@H](CC(N)=O)NC(=O)[C@H](CCCNC(=N)N)NC(=O)[C@H](CCCNC(=N)N)NC(=O)[C@H](CCCNC(=N)N)NC(=O)[C@H](CCCNC(=N)N)NC(=O)COCCOCCNC(=O)COCCOCCN)C(=O)N[C@@H](Cc1c[nH]cn1)C(=O)N[C@@H](C)C(=O)N[C@@H](CCCNC(=N)N)C(=O)N[C@@H](Cc1ccccc1)C(=O)N[C@H](C(=O)N[C@@H](CCSC)C(=O)N[C@H](C(=O)N[C@@H](C)C(=O)N[C@@H](C)C(=O)N[C@@H](CO)C(=O)N[C@@H](CO)C(=O)N[C@@H](Cc1ccccc1)C(=O)N[C@@H](CCC(N)=O)C(=O)N[C@@H](CCCNC(=N)N)C(=O)O)[C@@H](C)O)C(C)C", "note": "[^14C-BCC03-5RMP] (H-[AEEA][AEEA]RRRRNQGRHFCGGALIHARFVMTAASSFQR-OH; N-terminus assumed)", "values": [{"measurement": "administered radioactivity eliminated within the first 48 hours postdose", "setting": "[2]", "result": "approximately 55%"}, {"measurement": "Clearance of radioactivity in plasma compared to blood", "setting": "[2]; 20 mg/kg", "result": "approximately 2 fold"}, {"measurement": "exposure (AUC0-∞) in blood compared to plasma", "setting": "[2]; 20 mg/kg", "result": "approximately 2 fold"}, {"measurement": "volume of distribution of total radioactivity in blood compared to plasma", "setting": "[2]; 20 mg/kg", "result": "approximately 1.6 fold"}]}
{"molecule": "GTRCQVAGWGSQHSGGRLSRFPRFVNV [Peptide 120-146QH]", "values": [{"measurement": "HCEC migration versus buffer control", "setting": "[1]", "result": "significantly increase migration"}, {"measurement": "HCEC migration compared with whole CAP37 protein", "setting": "[1]; 120-146QH at 10^−6 M and 10^−8 M", "result": "comparable"}]}
{"molecule": "B1", "values": [{"measurement": "HCEC migration versus buffer control", "setting": "[1]", "result": "significant increase in migration"}, {"measurement": "corneal wound healing versus vehicle", "setting": "[3]; treated at 0 and 16 hours, 95-122 10^−5 M, 120-146WH 10^−8 M or 10^−6 M, HB-EGF 250 ng/ml", "result": "significantly higher"}, {"measurement": "time to complete closure of scratched monolayers", "setting": "HCEC monolayers; 250 ng/ml", "result": "≤ 24", "unit": "h"}, {"measurement": "percentage wound closure in vitro", "setting": "HCEC monolayers; 250 ng/ml, at 18 hours", "result": "~88", "unit": "%"}]}
{"molecule": "B2", "values": [{"measurement": "HCEC migration versus buffer control", "setting": "[1]", "result": "significant increase in migration"}, {"measurement": "re-epithelialization at 24 hours versus vehicle (H&E histology)", "setting": "[3]; 250 ng/ml", "result": "greatly accelerated"}, {"measurement": "wound closure at 16 hours", "setting": "[3]; [4]", "result": 71, "unit": "%"}, {"measurement": "wound closure at 24 hours", "setting": "[3]; [4]", "result": 83, "unit": "%"}, {"measurement": "percentage wound closure in vitro", "setting": "HCEC monolayers; 250 ng/ml, at 18 hours", "result": "~71", "unit": "%"}, {"measurement": "percentage wound closure in vitro", "setting": "HCEC monolayers; 500 ng/ml", "result": "approximately 62%"}]}
